Tested on: MS2 coat protein
Experiment: apparent KD of MS2 coat protein; designed switch direction (-1 OFF switch, 1 ON switch): 1; higher = weaker reporter binding
Method in brief: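 Transcription of designed RNA switches on Illumina chips was done by stalled E. coli RNA polymerase. SNAP-549-labelled MS2 coat protein was then titrated in doubling steps from 0.7 or 1.5 nM to 3 µM, with steps of 0.8–1.5 h at the lowest and 10–20 min at the highest concentration. The per-design median over clusters of curve-fitted normalised fluorescence is reported as apparent KD.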

[1] = input ligand: microRNA oligo, concentration not stated
[2] = Eterna round: R95, input ligand: FMN 200 uM
[3] = Eterna round: R95, input ligand: microRNA oligo, concentration not stated
[4] = Eterna round: R95, input ligand: none

Sequence	apparent KD of MS2 coat protein (input ligand: FMN 200 uM) [nM]	apparent KD of MS2 coat protein [1] [nM]	apparent KD of MS2 coat protein (input ligand: none) [nM]	apparent KD of MS2 coat protein [2] [nM]	apparent KD of MS2 coat protein [3] [nM]	apparent KD of MS2 coat protein [4] [nM]
AGUAGUUUAACAUGAGGAUCACCCAUGUAUCUAUCUGUAACCUAGGAUAUGGACGUUUUAUUUAACCAGAAGGAGGAUCGUUUA [JR_SSNG3_Sub045] (Eterna round: R96, puzzle: Same State NG 3)	17.1	16.9	25.3	–	–	–
AGUCCAGCCUGAGCUGGACAAAAGCAUGUACAUGAGGAUCACCCAUGUUCAUGUACAAGCUUUUUGCUCGUCUUAGC [salish99_208a_r3_063] (puzzle: Sensor for hsa-mir-208a)	–	–	–	837	14.6	648
AGCUAGUACCGAGGAUAUACGUACAUGAGGAUCACCCAUGUAUACAUGAUUUAAUGAGACUACAUGUAGAAGGCGGUACUAGCA [JL SSNG2 1.24] (Eterna round: R96, puzzle: Same State NG 2)	12.4	39	53.7	–	–	–
UGCCAUAGUAUAUUGGUACGUGCUUUUUGACAUGAGGAUCACCCAUGUCCUCGUCAUAUGCGCAGUCCGUAGACUGC (puzzle: Sensor for hsa-mir-208a)	–	–	–	328	234	374
GGCGAACAGGCCGACAUGAGGAUCACCCAUGUGGCCUCAUGUCAGGAUAUCGGGAAGGAGGAAACCGAGAAGGGACGGUGAGCC [AK SSNG3-V2-44] (Eterna round: R96, puzzle: Same State NG 3)	88.9	5.6	65.1	–	–	–
GGUAAACAUGAGGAUCACCCAUGUAAUAAUAUGGGAGGAUAUGGGAAUUAAUUAAUUAAACCAGAAGGCCUAAUGU [Mat - Same State 1 - D87] (puzzle: Same State 1)	–	–	–	53.1	536	519
AUUUUUAAUGCAGGAUAUGAUUAACAUGAGGAUCACCCAUGUGGUGUUGUGAGUAAGGAGAGUGAUCAGAAGGGCAUUUUUUUG [JMF's solution 90] (Eterna round: R96, puzzle: Same State NG 2)	753	287	458	–	–	–
ACCCAAAGUAUAUGGGAACAGGCUUUUUAACAUGAGGAUCACCCAUGUACUCGUCUUAUAAGCAGUCGAAAGACUGC [Sensor 100 - 2] (puzzle: Sensor for hsa-mir-208a)	–	–	–	487	18	906
GGAGCCGGCACCGAGGAUAUUCAUAUUAAAACAUGAGGAUCACCCAUGUACGCCAGAAGGCGUUGGGAGAAGGCGGAUCGGCUCG [Xeonanis - 22] (puzzle: Same State 2)	–	–	–	57.6	79.9	362
GUGCUCGUGUGAGGAUAUGCUUCCGUUUCGGCUGCAGAAGGUACUAUUAUACAUGAGGAUCACCCAUGUCGCUUUUCUCCGGUG [salish99_SSNG1_r04_915] (Eterna round: R96, puzzle: Same State NG 1)	–	21.8	–	–	–	–
GCCGUAUAAACAUGAGGAUCACCCAUGUGCGCGAGAGCGGAUGAGGAUAUCGAUGGGUUUCCCGUCGAGAAGGCGUGGGUCGGC [JL SSNG3 3.97] (Eterna round: R96, puzzle: Same State NG 3)	31	41.1	55.2	–	–	–
CCGUCGGAGGUAGGAUAUGGAGCCUUAUUGGCUCCAGAAGGAUCAAAUAAAUUAACAAACAUGAGGAUCACCCAUGUCCGACGG [Eli NG1ss - 86] (Eterna round: R96, puzzle: Same State NG 1)	156	331	558	–	–	–
GGAAACUUGAGAGGAUAUGUAGAGGAUCACCCUACAGAAGGCUCAUUUGAGAGGAUAUGUAGAGGAUCACCCUACAGAAGGCUC [pwkr ssNG DX.13] (Eterna round: R96, puzzle: Same State NG 1)	29.6	26	72.4	–	–	–
GGAAAACAUGAGGAUCACCCAUGUAAUAAUAUGGGAGGAUAUCAGAUUUAAUUUAAUUUAUGAGAAGGCCUAAAGG [Mat - Same State 1 - Mod of Eli - D64] (puzzle: Same State 1)	–	–	–	85	43.2	30.6
GGAUGAUAGAUAGGAUAUUGAUUGUAAUUAUGUCAAGAAGGAUCUUUGAUUUAAACGACCAGUUACAUGAGGAUCACCCAUGUU [JR_SSNG1_Sub087] (Eterna round: R96, puzzle: Same State NG 1)	23.3	30.4	43.6	–	–	–
UCUUGGUUUUUGCUCGUUUUUUGUGUUGAACAUGAGGAUCACCCAUGUAUUGUACGGUCCAGUUUAGUAAUGGUCCA [JMF 7] (puzzle: Sensor for hsa-mir-208a)	–	–	–	26.3	16.3	27.8
AAGAAUCUAUCUCAGGAUAUCAUGUCAAAGACAUGAGGAUCACCCAUGUACCAGGAAACUGGUUAUGAGAAGGGAGAUAGAUUCG [Mat - Same State 2 - Mod - D37] (puzzle: Same State 2)	–	–	–	235	134	233
GUGGUCAGACAUGAGGAUCACCCAUGUGGAAUAAAUAACACACAGGAUAUCAAAUAUAAAAUAUAUGAGAAGGGUGGAUUGGUG (Eterna round: R96, puzzle: Same State NG 3)	–	300	–	–	–	–
UGCUUCAUGUAAGGAUAUGCAGCCGUUUCGGCUGCAGAAGGUACUAUAAUACAUGAGGAUCACCCAUGUCUCUCGCAUUGCGAG [salish99_SSng1_r04_301] (Eterna round: R96, puzzle: Same State NG 1)	–	111	–	–	–	–
UCUUGGUUUUUGCUCGUUUUUUGUGUUGAACAUGAGGAUCACCCAUGUAUUGUACAGUCCGGUUUAGUGAUGGUCCG [JMF 58] (puzzle: Sensor for hsa-mir-208a)	–	–	–	40.2	32.6	45
GCCAUCGUAUGAGGAUAUGGCACCGUUUCGGUGCCAGAAGGCAUGUCAAUUGACAUGAGGAUCACCCAUGUAUUAUCGAUGGCA [JL Fiskers NG1ss - 33 mod 6] (Eterna round: R96, puzzle: Same State NG 1)	99.8	485	925	–	–	–
GCUAGGAUAUGACCAGGAUCACCGGUUAGAAGGAGCGAAAGCUAGGAUAUGACCAGGAUCACCGGUUAGAAGGAGCUGUCCUCC [pwkr ssNG3 DX 2xF5 +2xFMN.12] (Eterna round: R96, puzzle: Same State NG 3)	69.1	101	117	–	–	–
UUAAUGAUGAUAGGAUAUACAUGAGGAAUCCUCGUAGAAGGAUCAUGACAUGAGGAUCACCCAUGUAACGCUCCGUAGAGCGUA [JL SSNG1 1.16] (Eterna round: R96, puzzle: Same State NG 1)	220	94	250	–	–	–
AGUCCAGCCUGAGCUGGACAAAAGCAUGUACAUGAGGAUCACCCAUGUCAUGUACAAGCUUUUUGCUCGUUUUAAAA [Zipper 46 - 13] (puzzle: Sensor for hsa-mir-208a)	–	–	–	477	12.9	1010
AUAUAACAUGAGGAUCACCCAUGUCUCUAAAGUCGAGGAUAUGGGCAGGUUAUAUCCGAACCAGAAGGCGAAUUAU [SS1 Teenbexe 5] (puzzle: Same State 1)	–	–	–	56.3	239	322
AACAAUCUAUCUGAGGAUAUCUUGAAAUAAACAUGAGGAUCACCCAUGUGCAGGAAAACUGCAUAUGAGAAGGCAGAUAGAUUGA [salish99_ss2_r3_028] (puzzle: Same State 2)	–	–	–	14.5	124	148
GGCAGGUGCAGGCUUGCUUGCACCUGGAAACAUGAGGAUCACCCAUGUUUGGGACAAGCUUUGCUCCUCGUCUUAUC [JL ViennaUCT Isusreraar mod 1] (puzzle: Sensor for hsa-mir-208a)	–	–	–	179	43.1	232
UCCGCUAUCUAGAAGGAUAUGCGUAUAUAAACAUGAGGAUCACCCAUGUACCGGCGAAAACCGGUGCAGAAGGUUUAGCUAGUGA [Rediin] (Eterna round: R96, puzzle: Same State 2)	69.8	298	359	–	–	–

From the supplement of paper PMC9170038
